For the data set, the target named is RecA (UniProt P0A7G6). As to conditions: FITC-avidin confocal microscopy, permeabilized HEp-2 nuclei in agarose, 37 C; no signal without recA or with BSA.
Sequence of RecA (P0A7G6 2-353): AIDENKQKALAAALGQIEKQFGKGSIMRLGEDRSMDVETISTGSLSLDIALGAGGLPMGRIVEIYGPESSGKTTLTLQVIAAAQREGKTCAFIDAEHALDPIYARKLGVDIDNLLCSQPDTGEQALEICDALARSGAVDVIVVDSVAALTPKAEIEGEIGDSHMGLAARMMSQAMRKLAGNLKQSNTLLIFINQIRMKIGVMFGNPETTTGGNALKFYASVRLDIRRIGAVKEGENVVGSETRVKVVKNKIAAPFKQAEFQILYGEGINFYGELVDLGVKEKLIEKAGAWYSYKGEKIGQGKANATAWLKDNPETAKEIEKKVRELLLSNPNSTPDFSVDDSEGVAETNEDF

Turning to “human chromosome 1 alpha-satellite targeting polynucleotides (nick-translated pUC 1.77, denatured)”, the binding (% nuclei with signal) was greater than 25.

Values taken from patent US5763240.
